Data from the supplement of paper PMC9170038.

Tests used:
MS2 coat protein [1] = assay: apparent KD of MS2 coat protein; designed switch direction (-1 OFF switch, 1 ON switch): 1; higher = weaker reporter binding
Summary of the method: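 The apparent KD reported per design is the median over clusters of curve fits to normalised cluster fluorescence. The RNA switches were transcribed on Illumina chips by stalled E. coli RNA polymerase. SNAP-549-labelled MS2 coat protein was titrated from 0.7 or 1.5 nM, doubling up to 3 µM, in Tris-HCl pH 7.5 buffer containing KCl, MgCl2, BSA, DTT, tRNA and Tween-20, with no input, 200 uM small-molecule ligand, or an oligonucleotide input.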

MS2 coat protein [2] = assay: apparent KD of MS2 coat protein; higher = weaker reporter binding; details: Eterna round: R107
Summary of the method: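 Apparent KD per design is the median of normalised cluster binding-curve fits. Designed RNA switches transcribed on-chip from Illumina sequencing clusters were titrated with SNAP-549-labelled MS2 coat protein in twofold steps from 0.7 or 1.5 nM to 3 µM, with 0.8–1.5 h down to 10–20 min per step. Buffer: 100 mM Tris-HCl pH 7.5, 80 mM KCl, 4 mM MgCl2, without or with constant ligand.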

[3] = input ligand: microRNA oligo, concentration not stated
[4] = Eterna round: R95, input ligand: microRNA oligo, concentration not stated
[5] = input ligand: theophylline 20 uM
[6] = input ligand: theophylline 2 mM
[7] = input ligand: tryptophan 2.4 mM

| Sequence | apparent KD of MS2 coat protein (MS2 coat protein [1]; input ligand: FMN 200 uM) | apparent KD of MS2 coat protein (MS2 coat protein [1]; [3]) | apparent KD of MS2 coat protein (MS2 coat protein [1]; input ligand: none) | further results |
| --- | --- | --- | --- | --- |
| GGAGCCGGCCUAGGAUAUUUCAUAUAAAAACAUGAGGAUCACCCAUGUAGGCCAGAAGGCCUUGGGAAGAAGGAGGUCGGCUCC [Loop Effect - U25] (Eterna round: R96, puzzle: Same State NG 2) | 12.4 nM | 27.2 nM | 30.1 nM |  |
| GAGUGGAGGUAAGGAUAUAUAAUGAUAAUCACAGUAGAAGGUACUAACAUGAGGAUCACCCAUGUAGGACUAUACCAGAGAGGG [Parity 45 - Jieux - Same State NG 1] (Eterna round: R96, puzzle: Same State NG 1) |  | 11.9 nM |  |  |
| CCGUAGAUGGUAGGAUAUGGAGCCUUAUUGGCUCCAGAAGGAUCGAAACAUGAGGAUCACCCAUGUUCGGCGGUCAAUAGACCG [Eli NG1ss - 85] (Eterna round: R96, puzzle: Same State NG 1) | 22.5 nM | 17.6 nM | 23.9 nM |  |
| GUUACAUGAGGAUCACCCAUGUAUGUGUGGGAGUAAGUGUCUUAGGAUAUCUAGUAUUUAAUUCAAGAGAAGGAAGAUUGUUGU [JMF's solution 68] (Eterna round: R96, puzzle: Same State NG 3) | 118 nM | 132 nM | 122 nM |  |
| GUUACAUGAGGAUCACCCAUGUGUGUGUGGGAGUGAGUGGCUUAGGAUAUCUAUGAUUUAAGUUAAGAGAAGGAAGAUUGUUGU [SS-NG3-LRO03] (Eterna round: R96, puzzle: Same State NG 3) | 415 nM | 196 nM | 352 nM |  |
| UGGCUGGUGCUAGGAUAUACAUGAGGAAUCCUCGUAGAAGGAGCACGACAUGAGGAUCACCCAUGUAGCCGUCCGUAGACGGCU [salish99_SSNG1_r04_007] (Eterna round: R96, puzzle: Same State NG 1) | 284 nM | 156 nM | 112 nM |  |
| UGUCGUUGCAGAGGAUAUGGGAACUCGAUGCCGUAAGGUAUCAUAACAUGAGGAUCACCCAUGUCCCAGAAGGCUGCAGCAAGC [Leatve Mod] (Eterna round: R96, puzzle: Same State NG 2) | 29.7 nM | 94 nM | 235 nM |  |
| AGUCCAGCCUGAGCUGGACAAAAGCAUGUACAUGAGGAUCACCCAUGUUCAUGUACAAGCUUUUUGCUCGUCUUACU [salish99_208a_r3_077] (puzzle: Sensor for hsa-mir-208a) |  |  |  | apparent KD of MS2 coat protein (MS2 coat protein [1]; Eterna round: R95, input ligand: FMN 200 uM): 618 nM; apparent KD of MS2 coat protein (MS2 coat protein [1]; [4]): 14.6 nM; apparent KD of MS2 coat protein (MS2 coat protein [1]; Eterna round: R95, input ligand: none): 635 nM |
| GUGUAUAGCCUCGAGGAUAUCCUGUAAUGCACAUGAGGAUCACCCAUGUAUGAGCGAGUUUUUUGGGAGAAGGCGAGUUAUCGGU [JR_SS002_Sub1709] (Eterna round: R96, puzzle: Same State 2) |  | 18 nM |  |  |
| UAGUGCAUUAGAGGAUAUUCUUACGGAAACGUUAAGACAUGAGGAUCACCCAUGUUGUCACAUGGGAAGAAGGCUGAUGUGCUA [Omei SS(NG)2 Bv4] (Eterna round: R96, puzzle: Same State NG 2) | 63.6 nM | 390 nM | 835 nM |  |
| CGCCAGAGAACAGGAUAUGGGCCGCGGCCUAUGGGCUGCUAACUCACAUGAGGAUCACCCAUGUCCCAGAAGGGUUCCUGGCGG [Xediat] (Eterna round: R96, puzzle: Same State NG 2) | 472 nM | 23.1 nM | 262 nM |  |
| CAUCUAUACUUAGGAUAUGUAGGAUAUGCCUACAUGAGGAUCACCCAUGUUCGCAUGGCAGAAGGACAGAAGGAAGAACUACUU [pwkr ssNG2 2FMN + 1F5.5] (Eterna round: R96, puzzle: Same State NG 2) | 94.3 nM | 57.3 nM | 266 nM |  |
| UAAUUAAGUCAAGGAUAUCACGUCGAAUAGACGUGAGAAGGUGAUUAAUACAUGAGGAUCACCCAUGUAAUACAUGAAUAAUUA [SSNG1/11-B1] (Eterna round: R96, puzzle: Same State NG 1) | 38.3 nM | 61.6 nM | 70.8 nM |  |
| GGCAGACAUGAGGAUCACCCAUGUCGGCCGUUAGGAGGAUAUCGGUGAUAUCUGUCUCGCCGAGAAGGUUUAAUUA [Onaterleza] (puzzle: Same State 1) |  |  |  | apparent KD of MS2 coat protein (MS2 coat protein [1]; [4]): 9.71 nM |
| AAUGUAUGGCACAUGAGGAUCACCCAUGUGCGAGGACCGGUACGGCCGCCACUCGGUCGGUGGUUAAUGAAGCUAUACAUUAAUG [XTryp A #13] |  |  |  | apparent KD of MS2 coat protein (MS2 coat protein [2]; input ligand: arginine 13.2 mM): 26.8 nM; apparent KD of MS2 coat protein (MS2 coat protein [2]; [5]): 53.5 nM; apparent KD of MS2 coat protein (MS2 coat protein [2]; [6]): 55.1 nM |
| CACAUGAGGAUCACCCAUGUCUGAACUGAAGGAGCGCUAAACAAGGCAGGUAGGUCGCGGAAUCCCGGGUGCAUAUGCACCCGGG [9.aA] |  |  |  | apparent KD of MS2 coat protein (MS2 coat protein [2]; input ligand: arginine 13.2 mM): 50.4 nM; apparent KD of MS2 coat protein (MS2 coat protein [2]; input ligand: none): 23.9 nM; apparent KD of MS2 coat protein (MS2 coat protein [2]; [5]): 23.2 nM; apparent KD of MS2 coat protein (MS2 coat protein [2]; [6]): 23.4 nM; apparent KD of MS2 coat protein (MS2 coat protein [2]; [7]): 21.4 nM |
| CGGUCGGUCGGUCGGUGAUUAUGGGAUGAAGGAGCGUGGGAAGCUACAGGUAGGUCGCAUCCGAAACAUGAGGAUCACCCAUGUU [#21 Same State - Arginine A] |  |  |  | apparent KD of MS2 coat protein (MS2 coat protein [2]; input ligand: arginine 13.2 mM): 24.6 nM; apparent KD of MS2 coat protein (MS2 coat protein [2]; input ligand: none): 21 nM; apparent KD of MS2 coat protein (MS2 coat protein [2]; [5]): 26.8 nM; apparent KD of MS2 coat protein (MS2 coat protein [2]; [6]): 21.3 nM; apparent KD of MS2 coat protein (MS2 coat protein [2]; [7]): 18.5 nM |
| GUCUCUGAGAGAAGGAGCGUGAAGACAUGAGGAUCACCCAUGUAGAGGCGCCGAAGGCGUUCGCAGGUAGGUCGCUCUCAGAGAC [#1 Same State - Arginine B Attempt #20 (HarryS)] |  |  |  | apparent KD of MS2 coat protein (MS2 coat protein [2]; input ligand: arginine 13.2 mM): 15.2 nM; apparent KD of MS2 coat protein (MS2 coat protein [2]; input ligand: none): 15.5 nM; apparent KD of MS2 coat protein (MS2 coat protein [2]; [5]): 23.8 nM; apparent KD of MS2 coat protein (MS2 coat protein [2]; [6]): 17.5 nM; apparent KD of MS2 coat protein (MS2 coat protein [2]; [7]): 18.4 nM |
| GGCCCGGACUUGGAAUGGGUGUUUCCUUCACGAGGACCGGUACGGCCGCCACUCGAAGACAUGAGGAUCACCCAUGUAGUCGACC [Soleti] |  |  |  | apparent KD of MS2 coat protein (MS2 coat protein [2]; input ligand: arginine 13.2 mM): 20.3 nM; apparent KD of MS2 coat protein (MS2 coat protein [2]; input ligand: none): 21.7 nM; apparent KD of MS2 coat protein (MS2 coat protein [2]; [5]): 100 nM; apparent KD of MS2 coat protein (MS2 coat protein [2]; [6]): 41.1 nM; apparent KD of MS2 coat protein (MS2 coat protein [2]; [7]): 18.2 nM |
